In test [1] the target is T1, Ac-pYEEIE-NH2 (SMILES CC[C@H](C)[C@H](NC(=O)[C@H](CCC(=O)O)NC(=O)[C@H](CCC(=O)O)NC(=O)[C@H](Cc1ccc(OP(=O)(O)O)cc1)NC(C)=O)C(=O)N[C@@H](CCC(=O)O)C(N)=O).
T1 chain: Ac-[pY]EEIE-NH2
Nature of the test: competition binding assay (SH2scan, qPCR).

In test [2] the target is T2, caffeic acid-pYEEIE.
T2 chain: {caffeic acid}-[pY]EEIE
Nature of the test: competition binding assay (SH2scan, qPCR). (In general: Quantitative PCR measures a nucleic acid by following its amplification.)

The values below come from paper PMC12951562 (2026).

Non-standard residues stand in square brackets, D forms with d. No end group written: not given here. pY = N[C@@H](Cc1ccc(OP(=O)(O)O)cc1)C(=O)O

B1: YES SH2 (protein)
chain: AEEWYFGKMGRKDAERLLLNPGNQRGIFLVRESETTKGAYSLSIRDWDEIRGDNVKHYKIRKLDNGGYYITTRAQFDTLQKLVKHYTEHADGLCHKLTTVCPTV
In the case of B1, in test [1], the Kd was 3.8 µM.

B2: FES SH2 (protein)
chain: EQLWYHGAIPRAEVAELLVHSGDFLVRESQGKQEYVLSVLWDGLPRHFIIQSLDNLYRLEGEGFPSIPLLIDHLLSTQQPLTKKSGVVLHRAVPKD
For the molecule B2, the Kd in test [1] was 4.2 µM. This Kd and that of the molecule before are within 1.5-fold of each other.

B3: FYN SH2 (protein)
chain: AEEWYFGKLGRKDAERQLLSFGNPRGTFLIRESETTKGAYSLSIRDWDDMKGDHVKHYKIRKLDNGGYYITTRAQFETLQQLVQHYSERAAGLCCRLVVPCHKG
Take B3: the Kd in test [2] is 0.00053 µM; in test [1], 3.3 µM.

B4: PIK3R3 C-terminal SH2 (protein)
chain: WFVEDINRVQAEDLLYGKPDGAFLIRESSKKGCYACSVVADGEVKHCVIYSTARGYGFAEPYNLYSSLKELVLHYQQTSLVQHNDSLNVRLAYPV
On to B4, for which binding in test [1] was characterised by a dissociation constant (Kd) of 14.9 µM.

In general, Kd refers to the concentration at which binding is half-saturated. Low values mean tighter binding, high ones weaker binding.
